Results as given in patent publication US20180086837A1.

How the values were obtained:
[1] = biological target: cynomolgus CXCR4 (cynomolgus) (UniProt Q28474); test: flow cytometry, transfected HEK293T cells; normalisation reference (column 10 nM)
hCXCR4-V196E (human) [2] = biological target: hCXCR4-V196E (human) (UniProt P61073); test: as above
[3] = biological target: cynomolgus CXCR4 (cynomolgus) (UniProt Q28474); test: flow cytometry, transfected HEK293T cells; normalisation reference (column 100 nM)
hCXCR4-V196E (human) [4] = biological target: hCXCR4-V196E (human) (UniProt P61073); test: as above

Measured: % binding relative to hCXCR4

cynomolgus CXCR4 (cynomolgus), sequence (Q28474 whole entry): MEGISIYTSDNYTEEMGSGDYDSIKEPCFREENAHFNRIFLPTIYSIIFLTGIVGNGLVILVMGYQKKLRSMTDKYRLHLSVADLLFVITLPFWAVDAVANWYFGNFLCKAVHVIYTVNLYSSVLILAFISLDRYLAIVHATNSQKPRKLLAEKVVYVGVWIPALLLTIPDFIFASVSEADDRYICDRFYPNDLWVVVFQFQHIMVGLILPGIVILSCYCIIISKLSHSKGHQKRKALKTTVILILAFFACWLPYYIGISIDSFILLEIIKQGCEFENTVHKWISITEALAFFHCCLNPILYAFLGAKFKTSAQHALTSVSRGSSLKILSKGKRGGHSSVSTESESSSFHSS
hCXCR4-V196E (human), sequence (P61073 whole entry V196E): as the sequence (Q28474 whole entry) above, with I24M, H35N, R38K, K146R, S176N, V196E counted along it

anti-CXCR4 monoclonal antibody 12G5 (R&D Systems, MAB170)
100%: all assays above
